Measured values as given in PMC6389388 (Journal of molecular biology, 2019).

B1: UBQLN2 UBL domain (domain or fragment, human)
chain: APAEPKIIKVTVKTPKEKEEFAVPENSSVQQFKEAISKRFKSQTDQLVLIFAGKILKDQDTLIQHGIHDGLTVHLVIK
B2: His-tagged hRpn10^196–306 (domain or fragment, human, UniProt P55036 196-306, looked up)
chain: MLGLGASDFEFGVDPSADPELALALRVSMEEQRQRQEEEARRAAAASAAEAGIATTGTEDSDDALLKMTISQQEFGRTGLPDLSSMTEEEQIAYAMQMSLQGAEFGQAESA

What was measured:
[1] = target: B2; test: NMR titration
[2] = target: B2; test: NMR structure
M1 diubiquitin = M1 diubiquitin (UniProt P0CG48 1-76; P0CG48 1-76, M1 linkage between the two ubiquitins); test: pull-down

Binder | KD of the secondary binding site (UIM-2) [1] | stoichiometry N [2] | binding result (M1 diubiquitin)
B1 | 24.8 ± 3.1 µM | 2 | 
B2 |  |  | binds
